Results on eight molecules are retold here after patent US11946041B2, “Modification of polypeptides” (BicycleRD Limited, priority 2017, dated 2024).

In assay [1] the target is T1, CCR4 (Homo sapiens, UniProt P51679).
T1 construct: host or cells: CHO-K1
T1 sequence (P51679 1-360): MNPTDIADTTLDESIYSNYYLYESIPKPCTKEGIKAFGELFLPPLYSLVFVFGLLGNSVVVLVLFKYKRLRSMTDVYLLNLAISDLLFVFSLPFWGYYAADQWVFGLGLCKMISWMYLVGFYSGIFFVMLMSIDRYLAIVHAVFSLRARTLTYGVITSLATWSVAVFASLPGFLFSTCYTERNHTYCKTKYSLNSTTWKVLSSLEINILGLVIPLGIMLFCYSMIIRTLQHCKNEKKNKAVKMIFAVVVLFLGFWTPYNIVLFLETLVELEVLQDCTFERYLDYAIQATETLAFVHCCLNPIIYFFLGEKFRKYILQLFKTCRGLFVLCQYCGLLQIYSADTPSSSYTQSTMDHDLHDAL
The assay can be described thus: PathHunter eXpress CCR4 CHO-K1 β-Arrestin GPCR Assay, agonist format. The class given is cell-based. The method, then: (§1) The aim of the present experiment was to analyze if if these peptides are functional using a Discoverx Assay, the Beta-Arrestin recruitment assay, to identify agonism or antagonism in the selected peptides.
(§2) Standard protocols used: • PathHunter® eXpress CCR4 CHO-K1 β-Arrestin GPCR Assay. 100 dp (1×96-well)
(§3) The experiment was carried using the manufacturer instructions.
The concentration was increased to test for response at high concentration.

Assay [2] addresses T1, CCR4. As to the kind of experiment: PathHunter eXpress CCR4 CHO-K1 β-Arrestin GPCR Assay, antagonist format with CCL22. It counts as cell-based. The method, then:
as §1, §2, §3
We therefore used the assay in an antagonist format, using 10 nM CCL22.
We repeated this experiment lowering the concentration of CCL22 from 10 nM to 1 nM to show a full inhibition curve.

A further assay addresses T2, EphA3 (Homo sapiens, UniProt P29320).
T2 construct: So far all selections have been performed with soluble EphA3 ecto domain
T2 sequence (P29320 21-541 limits assumed): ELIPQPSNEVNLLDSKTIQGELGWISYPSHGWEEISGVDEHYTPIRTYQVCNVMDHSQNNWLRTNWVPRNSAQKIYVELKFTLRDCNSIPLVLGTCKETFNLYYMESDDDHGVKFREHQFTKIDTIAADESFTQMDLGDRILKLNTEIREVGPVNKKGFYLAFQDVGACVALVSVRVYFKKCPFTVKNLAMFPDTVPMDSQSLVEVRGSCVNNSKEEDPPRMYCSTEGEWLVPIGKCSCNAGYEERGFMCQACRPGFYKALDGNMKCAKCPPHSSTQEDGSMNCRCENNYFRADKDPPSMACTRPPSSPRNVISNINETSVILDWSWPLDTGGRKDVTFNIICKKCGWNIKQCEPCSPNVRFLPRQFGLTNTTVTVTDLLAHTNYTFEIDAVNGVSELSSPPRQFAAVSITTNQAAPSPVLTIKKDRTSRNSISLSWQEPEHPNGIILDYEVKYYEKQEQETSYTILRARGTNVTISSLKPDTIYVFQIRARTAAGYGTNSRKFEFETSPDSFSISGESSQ
The assay can be described thus: EphA3 FP competition assay with 67-10-05 as labelled tracer. The class given is binding. As to conditions: tracer 67-10-05.

The target in another assay is T3, MT1-MMP hemopexin domain (Homo sapiens, UniProt P50281).
T3 construct: Human MMP-14 PEX protein at 71.1 μM monomer
The assay can be described thus: MMP-14 FP competition binding between peptide families. How it is done: FIG. 6 illustrates an analysis of MT-MMP binding ligands. A: MMP-14 FP direct binding in cell-based selections; 1 nM tracer, 60 min data. 17-98-Sar6-k(FI)-and-17-99-Sar6-k(FI)-bind with Kds of 354 nM and 501 nM respectively. B: competition binding with several combinations of peptides, both fluorescein-labelled or native, from soluble and cell based selections.
FIG. 7 illustrates the competition profile between peptide ligands isolated in this example.
• Human MMP-14 PEX protein at 71.1 μM monomer (previously 77.1 μM) (T-017-011), stored in fridge (4/7/14) • Peptides as described in Results section
Method: • Prepare assay buffer: 20 mM HEPES, 150 mM NaCl, 1 mM CaCl2), 0.1% Tween20 (pH 7.6). Buffer was filtered before use to remove precipitate. • Method according to Example 3 with tracer at 1 nM and MMP-14 PEX at concentrations detailed in the graphs • 60 min data analysed • Results are shown in FIG. 6.

Entries after “also recorded” stand apart in the source; their conditions may differ.

As to “ACRAVHSLRCLTTCA [24-17-00-N001, bicyclic peptide ligand, TATA scaffold, from CCR4 cell-based selection]”, the “Raw Data” value was 27836 with CCR4 [1] (0.006 nM); 26107 in the assay with CCR4 [1] (0.02 nM); 29865 with CCR4 [1] (0.06 nM); 29746 with CCR4 [1] (0.17 nM); 27025 with CCR4 [1] (0.51 nM); 27917 in the assay with CCR4 [1] (1.5 nM). Moreover, the “Raw Data” value with CCR4 [1] (4.6 nM) is 25017; with CCR4 [1] (13.9 nM), 23972; with CCR4 [1] (41.7 nM), 23928; with CCR4 [1] (125 nM), 23999; with CCR4 [1] (375 nM) it was 22611; with CCR4 [1] (high concentration, 0.001 uM) it was 11608. In addition, the “Raw Data” value is listed as 11809 with CCR4 [1] (high concentration, 0.003 uM); 13248 in the assay with CCR4 [1] (high concentration, 0.008 uM); 13984 in the assay with CCR4 [1] (high concentration, 0.023 uM); 14856 in the assay with CCR4 [1] (high concentration, 0.1 uM); 15518 with CCR4 [1] (high concentration, 0.2 uM); 15965 in the assay with CCR4 [1] (high concentration, 0.6 uM). Further, the “Raw Data” value with CCR4 [1] (high concentration, 1.9 uM) stood at 17244; in the assay with CCR4 [1] (high concentration, 5.6 uM), 17261; with CCR4 [1] (high concentration, 16.7 uM), 16709; with CCR4 [1] (high concentration, 50 uM), 16749; with CCR4 [2] (1 nM CCL22, 0.001 uM), 272073; in the assay with CCR4 [2] (1 nM CCL22, 0.003 uM), 292052. For the same molecule, the “Raw Data” value amounted to 301675 with CCR4 [2] (1 nM CCL22, 0.008 uM); 285103 with CCR4 [2] (1 nM CCL22, 0.023 uM); 296795 in the assay with CCR4 [2] (1 nM CCL22, 0.1 uM); 246983 with CCR4 [2] (1 nM CCL22, 0.2 uM); 252179 with CCR4 [2] (1 nM CCL22, 0.6 uM); 240952 in the assay with CCR4 [2] (1 nM CCL22, 1.9 uM). Moreover, the “Raw Data” value in the assay with CCR4 [2] (1 nM CCL22, 5.6 uM) was determined as 197381; with CCR4 [2] (1 nM CCL22, 16.7 uM), 125610; with CCR4 [2] (1 nM CCL22, 50 uM), 114156; with CCR4 [2] (10 nM CCL22, 0.001 uM) it was 164018; with CCR4 [2] (10 nM CCL22, 0.003 uM), 174559; in the assay with CCR4 [2] (10 nM CCL22, 0.008 uM), 143078. For the same molecule, the “Raw Data” value in the assay with CCR4 [2] (10 nM CCL22, 0.023 uM) is listed as 164921; with CCR4 [2] (10 nM CCL22, 0.1 uM), 153182; in the assay with CCR4 [2] (10 nM CCL22, 0.2 uM), 151630; with CCR4 [2] (10 nM CCL22, 0.6 uM) it was 146982; in the assay with CCR4 [2] (10 nM CCL22, 1.9 uM), 132070; with CCR4 [2] (10 nM CCL22, 5.6 uM), 148721. The “Raw Data” value is recorded as 140316 with CCR4 [2] (10 nM CCL22, 16.7 uM) and 153988 in the assay with CCR4 [2] (10 nM CCL22, 50 uM).

The molecule “CIPDPYQCVILRQPC [67-10-05-N005, EphA3 peptide ligand, 6X6 loops, from soluble selection; used as labelled tracer]” had an inhibition constant Ki on EphA3 of 5.39 nM.

Regarding CKMESWECLMLHPKC [Peptide 17-98], in the assay with MT1-MMP hemopexin domain, the “binding site on MT1-MMP” value was “binds to the same site as the 17-88 family (the collagen binding site)”.

Turning to “CPYSWETCLFGDYRC [Peptide 17-88, peptide ligand family from soluble selections against MT1-MMP hemopexin domain]”, in the assay with MT1-MMP hemopexin domain, the “binding site on MT1-MMP” value is reported as “binds to the collagen binding site” and the “competition with other peptide families” value was “do not cross compete”.

Regarding CQNRFPNCPINGFFC [Peptide 17-99], the “competition with other peptide families” value with MT1-MMP hemopexin domain is given as “competes with all the other families”.

As to “CRASAGQCNPDPKLC [67-24-00-N001, EphA3 peptide from cell-based screening, 6X6 loops]”, the “Ki (nM)” value on EphA3 is given as “No binding”.

With CYNEFGCEDFYDIC [Peptide 17-69-07], in the assay with MT1-MMP hemopexin domain, the “binding site on MT1-MMP” value was “binds to a neutral binding site; also recorded: binding site is distinct from the 17-88/17-98 binding site” and the “competition with other peptide families” value is listed as “do not cross compete”.

B1: CCL22: the natural ligand of CCR4; CCL22 Discoverx (Cat no #92-1006) (protein, UniProt O00626 25-93, looked up)
C-C motif chemokine 22: GPYGANMEDSVCCRDYVRYRLPLRVVKHFYWTSDSCPRPGVVLLTFRDKEICADPRVPWVKMILNKLSQ
In the assay with CCR4 [1], B1 displayed an EC50 of 1.65 nM. Also, the “Raw Data” value is listed as 37757 with CCR4 [1] (0.006 nM); 41715 in the assay with CCR4 [1] (0.02 nM); 57093 in the assay with CCR4 [1] (0.06 nM); 84488 with CCR4 [1] (0.17 nM); 111988 with CCR4 [1] (0.51 nM); 135687 in the assay with CCR4 [1] (1.5 nM). The “Raw Data” value with CCR4 [1] (4.6 nM) was 172692; with CCR4 [1] (13.9 nM), 209362; with CCR4 [1] (41.7 nM), 230085; in the assay with CCR4 [1] (125 nM), 249665; with CCR4 [1] (375 nM), 234176; with CCR4 [1] (high concentration, 0.001 uM), 16366. Moreover, the “Raw Data” value in the assay with CCR4 [1] (high concentration, 0.003 uM) amounted to 23261; in the assay with CCR4 [1] (high concentration, 0.008 uM), 29739; in the assay with CCR4 [1] (high concentration, 0.023 uM) it was 47935; with CCR4 [1] (high concentration, 0.1 uM), 67642; with CCR4 [1] (high concentration, 0.2 uM), 88410; with CCR4 [1] (high concentration, 0.6 uM) it was 101987. The “Raw Data” value was 118822 with CCR4 [1] (high concentration, 1.9 uM); 118686 in the assay with CCR4 [1] (high concentration, 5.6 uM); 130064 with CCR4 [1] (high concentration, 16.7 uM); 122799 with CCR4 [1] (high concentration, 50 uM); 189754 with CCR4 [2] (1 nM CCL22, 0.001 uM); 206356 with CCR4 [2] (1 nM CCL22, 0.003 uM). The “Raw Data” value with CCR4 [2] (1 nM CCL22, 0.008 uM) turned out to be 204398; with CCR4 [2] (1 nM CCL22, 0.023 uM) it was 218834; with CCR4 [2] (1 nM CCL22, 0.1 uM) it was 225758; with CCR4 [2] (1 nM CCL22, 0.2 uM), 245828; with CCR4 [2] (1 nM CCL22, 0.6 uM), 321207; with CCR4 [2] (1 nM CCL22, 1.9 uM) it was 425613. For the same molecule, the “Raw Data” value turned out to be 422771 with CCR4 [2] (1 nM CCL22, 5.6 uM); 433500 with CCR4 [2] (1 nM CCL22, 16.7 uM); 508067 with CCR4 [2] (1 nM CCL22, 50 uM); 178148 with CCR4 [2] (10 nM CCL22, 0.001 uM); 150444 in the assay with CCR4 [2] (10 nM CCL22, 0.003 uM); 136281 in the assay with CCR4 [2] (10 nM CCL22, 0.008 uM). The “Raw Data” value is 131693 with CCR4 [2] (10 nM CCL22, 0.023 uM); 151947 with CCR4 [2] (10 nM CCL22, 0.1 uM); 169306 with CCR4 [2] (10 nM CCL22, 0.2 uM); 173881 with CCR4 [2] (10 nM CCL22, 0.6 uM); 175875 with CCR4 [2] (10 nM CCL22, 1.9 uM); 212050 in the assay with CCR4 [2] (10 nM CCL22, 5.6 uM). Moreover, the “Raw Data” value worked out at 245795 with CCR4 [2] (10 nM CCL22, 16.7 uM) and 223579 with CCR4 [2] (10 nM CCL22, 50 uM).
